Experimental data from the RNAGym collection of RNA variant scans (doi:10.7554/elife.80360).

B1: Hammerhead Ribozyme (parent)
chain: ACCGGAUGUGCUUUCCGGUCUGAUGAGUCCGUGAGGACGAAACAG

Variants of: B1
Assay: self-cleavage, relative activity (ratio to wild type); higher = more cleavage; co-transcriptional

Variant	self-cleavage
ACCGGAUGUGUUUUUCGGUCUGAUGAGUCCGUGAGGACGAAACAG	1.18
ACCGGAUGUGUUUUGCGGUCUGAUGAGUCCGUGAGGACGAAACAG	1.04
ACCGGAUGUGUUUUACGGUCUGAUGAGUCCGUGAGGACGAAACAG	1.02
ACCGGAUGUGGUUACCGGUCUGAUGAGUCCGUGAGGACGAAACAG	1.25
ACCGGAUGUGGUUGCCGGUCUGAUGAGUCCGUGAGGACGAAACAG	0.74
ACCGGAUGUGGUUCCCGGUCUGAUGAGUCCGUGAGGACGAAACAG	0.867
ACCGGAUGUGUUUUCCGGUGUGAUGAGUCCGUGAGGACGAAACAG	0.327
ACCGGAUGUGUUUUCCGGUAUGAUGAGUCCGUGAGGACGAAACAG	0.441
ACCGGAUGUGUUUUCCGGUUUGAUGAGUCCGUGAGGACGAAACAG	0.544
ACCGGAUGUGGUUUCCGGUCUGAUGAGUCCGUGAGGACGAAAUAG	0.483
ACCGGAUGUGGUUUCCGGUCUGAUGAGUCCGUGAGGACGAAAGAG	0.29
ACCGGAUGUGGUUUCCGGUCUGAUGAGUCCGUGAGGACGAAAAAG	0.311
ACCGGAUGUGUUUUCCGGUCUGUUGAGUCCGUGAGGACGAAACAG	0.338
ACCGGAUGUGUUUUCCGGUCUGCUGAGUCCGUGAGGACGAAACAG	0.277
ACCGGAUGUGUUUUCCGGUCUGGUGAGUCCGUGAGGACGAAACAG	0.39
ACCGGAUGUGGUUUCCGGUCUGAUGAGUCCGUGAGUACGAAACAG	0.69
ACCGGAUGUGGUUUCCGGUCUGAUGAGUCCGUGAGAACGAAACAG	0.763
ACCGGAUGUGGUUUCCGGUCUGAUGAGUCCGUGAGCACGAAACAG	0.998
ACCGGAUGUGGUUUCCGGUCUGAUGAGUCCGUGAGGACCAAACAG	0.541

Variant	self-cleavage
ACCGGAUGUGGUUUCCGGUCUGAUGAGUCCGUGAGGACUAAACAG	0.301
ACCGGAUGUGGUUUCCGGUCUGAUGAGUCCGUGAGGACAAAACAG	0.253
ACCGGAUGUGUUUUCCGGUCUGAUGGGUCCGUGAGGACGAAACAG	0.335
ACCGGAUGUGUUUUCCGGUCUGAUGUGUCCGUGAGGACGAAACAG	0.64
ACCGGAUGUGUUUUCCGGUCUGAUGCGUCCGUGAGGACGAAACAG	0.433
ACCGGAUGUGGUUUCCGGUCUGAAGAGUCCGUGAGGACGAAACAG	0.829
ACCGGAUGUGGUUUCCGGUCUGACGAGUCCGUGAGGACGAAACAG	1.07
ACCGGAUGUGGUUUCCGGUCUGAGGAGUCCGUGAGGACGAAACAG	1.3
ACCGGAUGUGUUUUCCGGUCUGAUGAGUACGUGAGGACGAAACAG	0.329
ACCGGAUGUGUUUUCCGGUCUGAUGAGUGCGUGAGGACGAAACAG	0.646
ACCGGAUGUGUUUUCCGGUCUGAUGAGUUCGUGAGGACGAAACAG	0.897
ACCGGAUGUGGUUUCCGGUCUGAUGAGUCCGUGACGACGAAACAG	0.668
ACCGGAUGUGGUUUCCGGUCUGAUGAGUCCGUGAAGACGAAACAG	1.02
ACCGGAUGUGGUUUCCGGUCUGAUGAGUCCGUGAUGACGAAACAG	0.957
ACCGGAUGUGGUUUCCGGUUUGAUGAGUCCGUGAGGACGAAACAG	0.695
ACCGGAUGUGGUUUCCGGUCUGAUGAGUCCGUUAGGACGAAACAG	1.53
ACCGGAUGUGGUUUCCGGUCUGAUGAGUCCGUCAGGACGAAACAG	1
ACCGGAUGUGGUUUCCGGUCUGAUGAGUCCGUAAGGACGAAACAG	1.11
ACCGGAUGUGUUUUCCGGUCUGAUGAGUCCGUGAGGACGGAACAG	0.342

Variant	self-cleavage
ACCGGAUGUGUUUUCCGGUCUGAUGAGUCCGUGAGGACGUAACAG	0.296
ACCGGAUGUGUUUUCCGGUCUGAUGAGUCCGUGAGGACGCAACAG	0.438
ACCGGAUGUGUUUUCCGGUCUGAUGAGUCCGUGAGGAUGAAACAG	1.02
ACCGGAUGUGUUUUCCGGUCUGAUGAGUCCGUGAGGAGGAAACAG	0.611
ACCGGAUGUGUUUUCCGGUCUGAUGAGUCCGUGAGGAAGAAACAG	0.511
ACCGGAUGUGUUUUCCGGUCUGAUGAGUCCGUGAGGACGAUACAG	0.278
ACCGGAUGUGUUUUCCGGUCUGAUGAGUCCGUGAGGACGAGACAG	0.386
ACCGGAUGUGUUUUCCGGUCUGAUGAGUCCGUGAGGACGACACAG	0.337
ACCGGAUGUGGUUUCCGGUCUCAUGAGUCCGUGAGGACGAAACAG	0.338
ACCGGAUGUGGUUUCCGGUCUAAUGAGUCCGUGAGGACGAAACAG	0.304
ACCGGAUGUGGUUUCCGGUCUUAUGAGUCCGUGAGGACGAAACAG	0.378
ACCGGAUGUGGUUUCCGGUCUGAUGAGUCCGUGAGGACGAAACAC	0.962
ACCGGAUGUGGUUUCCGGUCUGAUGAGUCCGUGAGGACGAAACAA	0.626
ACCGGAUGUGGUUUCCGGUCUGAUGAGUCCGUGAGGACGAAACAU	0.928
ACCGGAUGUGUUUUCCGGUCUGAUGAGUCUGUGAGGACGAAACAG	0.736
ACCGGAUGUGUUUUCCGGUCUGAUGAGUCGGUGAGGACGAAACAG	0.714
ACCGGAUGUGUUUUCCGGUCUGAUGAGUCAGUGAGGACGAAACAG	0.765
ACCGGAUGUGUUUUCCGGUCUGAUGAGUCCGUGAGGUCGAAACAG	0.665
ACCGGAUGUGUUUUCCGGUCUGAUGAGUCCGUGAGGCCGAAACAG	0.987
